Tested on: MS2 coat protein
Test: apparent KD of MS2 coat protein; designed switch direction (-1 OFF switch, 1 ON switch): 1; higher = weaker reporter binding
Summary of the method: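 Designed RNA switches with common flanks were made on Illumina chips by stalled E. coli RNA polymerase. Titration with SNAP-549-labelled MS2 coat protein doubled from 0.7 or 1.5 nM up to 3 µM. Apparent KD is each design's median over clusters after curve-fitting normalised fluorescence.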

[1] = input ligand: microRNA oligo, concentration not stated
[2] = Eterna round: R95, input ligand: FMN 200 uM
[3] = Eterna round: R95, input ligand: microRNA oligo, concentration not stated
[4] = Eterna round: R95, input ligand: none

| Sequence | apparent KD of MS2 coat protein (input ligand: FMN 200 uM) [nM] | apparent KD of MS2 coat protein [1] [nM] | apparent KD of MS2 coat protein (input ligand: none) [nM] | apparent KD of MS2 coat protein [2] [nM] | apparent KD of MS2 coat protein [3] [nM] | apparent KD of MS2 coat protein [4] [nM] |
| --- | --- | --- | --- | --- | --- | --- |
| AUUAUUUAUGCAGGAUAUGAUUAACAUGAGGAUCACCCAUGUGGUGUUGUGAGUAAGGAGAGUGAUCAGAAGGGCAUUGUUUUU [JMF's solution 46] (Eterna round: R96, puzzle: Same State NG 2) | 1450 | 473 | 475 |  |  |  |
| GCGAAGAGGUAAGGAUAUGCAUGGCGUAGACAUGAGGAUCACCCAUGUAGGAGACGAAUUAGAAGGGAGAAGGUACCAGGACGC [AK SSNG2-V2-17.1] (Eterna round: R96, puzzle: Same State NG 2) | 939 | 699 | 746 |  |  |  |
| CUGACUUGUCAAGGAUAUCACGUCGAUUAGACGUGAGAAGGUGAUCUACACAUGAGGAUCACCCAUGUGUUACGUGGGAGUCAG [Brourd's SSNG1/1-A2 mod 20] (Eterna round: R96, puzzle: Same State NG 1) | 34.8 | 69 | 94.7 |  |  |  |
| GCUAGGAAUUAAGCCAACAUGAGGAUCACCCAUGUAUGUUGGUAGGAUAUCGUUUGCUUUGCAAACGAGAAGGGCUAACCUAGC [JL SSNG3 1.25] (Eterna round: R96, puzzle: Same State NG 3) | 51 | 50.4 | 58.1 |  |  |  |
| UGUUGUAUUACAGGAUAUCUAUUGUUUUUAAUUAGAGAAGGGUAUUCACAUGAGGAUCACCCAUGUAUAUACGAGGAAGUUGUG [JMF's solution 81] (Eterna round: R96, puzzle: Same State NG 1) |  | 37.6 |  |  |  |  |
| AGCUUUUAAUUAGGAUAUGGUCACAUGAGGAUCACCCAUGUAACGAUGAUAUAAUGUGGUCAAGACUAGAAGGGAUCGCUAACA [SameState NG2 #69] (Eterna round: R96, puzzle: Same State NG 2) | 320 | 282 | 284 |  |  |  |
| GUGGUCAGACAUGAGGAUCACCCAUGUGGAAUAAAUAACGUCAAGGAUAUACAAUAUAGGAUAUAGUAGAAGGUGAGAUUGGUG (Eterna round: R96, puzzle: Same State NG 3) |  | 94.8 |  |  |  |  |
| UAAACUUCUUUUAGUGUAAUGCAAGUGAAACAUGAGGAUCACCCAUGUAAAGGAUCGUGAUAUUUUGUUCGUCUUAA [JR_SHM208A_Sub076] (puzzle: Sensor for hsa-mir-208a) |  |  |  | 57.2 | 32.5 | 83 |
| AUUAAACAUGAGGAUCACCCAUGUCAACAAAGUCGAGGAUAUGGGCAAAUAAAAUAAGAACCAGAAGGCGACUAAU [salish99_ss1_r3_071] (puzzle: Same State 1) |  |  |  |  | 22.3 |  |
| UUGCGCUGUCGAGAGGAUAUGCGGUGUUGGACAUGAGGAUCACCCAUGUUAGCGAUAGCUUUACGGUAGAAGGCUCUUCAGCUGC [salish99_ss2_r3_097] (puzzle: Same State 2) |  |  |  |  | 99 |  |
| AGGCUCAGACGAGGAUAUACGUGGUCACAUGAGGAUCACCCAUGUCUCGAGCUUCGGCUCGAGGCGUAGAAGGCGUCUGAGCCA [SSNG2/6-A1] (Eterna round: R96, puzzle: Same State NG 2) | 152 | 201 | 268 |  |  |  |
| AUAAGUUUGAUGCUCGUCUCUCCGUACAGACAUGAGGAUCACCCAUGUAGCCGGGAAGUAGCCCGACCAGUAUGGCC [Isriinus] (puzzle: Sensor for hsa-mir-208a) |  |  |  | 72.2 | 23.9 | 93.7 |
| AUAAAACAUGAGGAUCACCCAUGUCUACAAAGUCGAGGAUAUGGGCAAAUAAAAUAAGAACCAGAAGGCGAAUAAU [salish99_ss1_r3_044] (puzzle: Same State 1) |  |  |  | 62.6 | 223 | 275 |
| AUUAUACAUGAGGAUCACCCAUGUAAUUAAUUAAUUAAGAUCUAGGAUAUCAGCUCGUUUAGAGCUGAGAAGGAGAUCACAUGU [SSNG3/20-C3] (Eterna round: R96, puzzle: Same State NG 3) |  | 23.3 |  |  |  |  |

Source: the supplement of paper PMC9170038
